B1: COVIC-164 (antibody, V domains shown)
VH: EVQLVESGGGLIQPGGSLRLSCAAAGLTVSSNYMNWVRQVPGKGLEWVSVIYSGGSTYYADSVKGRFTISRDNSKNTLYLQMNSLRAEDTAVYYCARDLGTLGMDVWGQGTTVTVSS
VL: DIQLTQSPSFLSASVGDRVTITCWASQGISTYLAWYQQKPGKAPKLLIYAASTLQSGVPSRFSGSGSGTEFTLTISSLQPEDFATYYCQQLNSYLPTFGQGTKVEIKR
B2: COVIC-64 (antibody)
chain: QVQLQESGGGLVQAGGSLRLSCAASGRTFSEYAMGWFRQAPGKEREFVATISWSGGSTYYTDSVKGRFTISRDNAKNTVYLQMNSLKPDDTAVYYCAAAGLGTVVSEWDYDYDYWGQGTQVTVSSGGSGGSQVQLQESGGGLVQAGGSLRLSCVASGSIFSINAMDWYRQAPGKQRELVAGITSGGSTNYGDFVKGRFTISRDNAKNTVYLQMDSLKPEDTAVYYCAAEVGGWGPPRPDYWGHGTQVTVSSGGGGSGGGGSKKKPLDGEYFTLQIRGRERFEMFRELNEALELKDAQAGKEPG
B3: COVIC-172 (antibody, V domains shown)
VH: QVQLVESGGDVVQPGRSLRLSCAASGFTFSRYGMHWVRQAPGKGLEWVAVISYDGSDKYYADSVKGRFTISRDNSKNTLYLQMNSLRAEDTAVYYCAKQLPLYYYYYGMDVWGQGTTVTVSS
VL: AIQLTQSPSSLSASVGDRVTITCRASQGISSALAWYQQKPGKAPNLLIYDASSLESGVPSRFSGSGSGTDFTLTISSLQPEDFATYYCQQFNIYPHTFGPGTKVDIKR
B4: COVIC-306 (antibody, V domains shown)
VH: QVQLVESGGGLVKPGGSLRLSCAASGFTVGSNYMSWVRQAPGKGLEWVSVIYSGGSTYYADSVKGRFTISRDNSKNTLYLQMNSLRAEDTAVYYCARGSSGAWYFDLWGRGTLVTVSS
VL: EIVMTQSPSSLSASVGDSVTITCQASQDISNYLNWYQQKPGKAPKLLIYDASNLETGVPSRFSGGGSGTDFTLTITSLQPEDIATYYCQQYDNFPPTFGPGTKVDIKR
B5: COVIC-140 (antibody, V domains shown)
VH: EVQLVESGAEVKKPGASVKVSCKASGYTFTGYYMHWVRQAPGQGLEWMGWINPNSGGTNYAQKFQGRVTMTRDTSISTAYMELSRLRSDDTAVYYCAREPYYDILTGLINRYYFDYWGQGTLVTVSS
VL: QSALTQPASVSGSPGQSITISCTGTSSDVGGYNFVSWYQQHPGKAPKLMIYEVSNRPSGVSNRFSGSKSGNTASLTISGLQAEDEADYYCSSYTSSSTRVFGGGTKLTVL
B6: COVIC-129 (antibody)
chain 1: QVQLQESGGGLVQAGGSLRLSCAASGRTFSEYAMGWFRQAPGKEREFVATISWSGGSTYYTDSVKGRFTISRDNAKNTVYLQMNSLKPDDTAVYYCAAAGLGTVVSEWDYDYDYWGQGTQVTVSSGGSGGSQVQLQESGGGLVQAGGSLRLSCAASGRTFSEYAMGWFRQAPGKEREFVATISWSGGSTYYTDSVKGRFTISRDNAKNTVYLQMNSLKPDDTAVYYCAAAGLGTVVSEWDYDYDYWGQGTQVTVSSGGGGSGGGGSASTKGPSVFPLAPSSKSTSGGTAALGCLVKDYFPEPVTVSWNSGALTSGVHTFPAVLQSSGLYSLSSVVTVPSSSLGTQTYICNVNHKPSNTKVDKKVEPKSCDKTHTCPPCPAPELLGGKKKPLDGEYFTLQIRGRERFEMFRELNEALELKDAQAGKEPG
chain 2: QVQLQESGGGLVQAGGSLRLSCAASGRTFSEYAMGWFRQAPGKEREFVATISWSGGSTYYTDSVKGRFTISRDNAKNTVYLQMNSLKPDDTAVYYCAAAGLGTVVSEWDYDYDYWGQGTQVTVSSGGSGGSQVQLQESGGGLVQAGGSLRLSCAASGRTFSEYAMGWFRQAPGKEREFVATISWSGGSTYYTDSVKGRFTISRDNAKNTVYLQMNSLKPDDTAVYYCAAAGLGTVVSEWDYDYDYWGQGTQVTVSSGGGGSGGGGSKRTVAAPSVFIFPPSDEQLKSGTASVVCLLNNFYPREAKVQWKVDNALQSGNSQESVTEQDSKDSTYSLSSTLTLSKADYEKHKVYACEVTHQGLSSPVTKSFNRGEC
B7: COVIC-93 (protein)
chain: MSSSSWLLLSLVAVTAAQSTIEEQVKTFLDKFNHEAEDLFYQCSLASWNYNTNITEENVQNMNNACDKWSAFLCEQSTLAQMYPLQEIQDLTVKLQLQALQQNGSCVLSEDKSKRLNTILNTMSTIYCTGKVCNPDNPQECLLLEPGLNEIMANSLDYNERLWAWESWRSEVGKQLRPLYEEYVVLKNEMARANHYEDYGDYWRGDYEVNGVDGYDYSRGQLIEDVEHTFEEIKPLYEHLHAYVRAKLMNAYPSYISPTGPLPAHLLGDMWGRFWTNLYSLTVPFGQKPNIDVTDAMVDQAWDAQRIFKEAEKFFVSVGLPNMTQGFWENSMLTDPGNGQKVCCYPTAWDLGKGDFRILMCTKVTMDDFLTAHHEMGHIQYDMAYAAQPFLLRNGANEGFHEAVGEIMSLSAATPKHLKSIGLLSPDFQEDNETEINFLLKQALTIVGTLPFTYMLEKWRWMVFKGEIPKDQWMKKWWEMKREIVGVVEPVPHDETYMDPASLFHVSNDYSFIRYYTRTLYQFQFQEALCQAAKHEGPLHKCDISNSTEAGQKLFNMLRLGKSEPWTLALENVVGAKNMNVRPLLNYFEPLFTWLKDQNKNSFVGWSTDWSPYADQSIKVRISLKSALGDKAYEWNDNEMYLFRSSVAYAMRQYFLKVKNQMILFGEEDVRVANLKPRISFNFFVTAPKNVSDITPRTEVEKAIRMSRSRINDCFRLNDNSLEFLGIQPTLGPPNQPPVECPPCPAPPVAGPSVFLFPPKPKDTLMISRTPEVTCVVVDVSHEDPEVQFNWYVDGVEVHNAKTKPREEQFNSTFRVVSVLTVVHQDWLNGKEYKCKVSNKGLPAPIEKTISKTKGQPREPQVYTLPPSREEMTKNQVSLTCLVKGFYPSDISVEWESNGQPENNYKTTPPMLDSDGSFFLYSKLTVDKSRWQQGNVFSCSVLHEALHSHYTQKSLSLSPGK
B8: COVIC-166 (antibody, V domains shown)
VH: QVQLVESGGGVVQPGRSLRLSCAASGFTFSSYGMHWVRQAPGKGLEWVAVISYDGSDKYYADSVKGRFTISRDNSKNTLYLQMNSLRAEDTAVYYCAKTVAGYYYYYYGMDVWGQGTTVTVSS
VL: DIQMTQSPSSVSASVGDRVTVTCRASQDISSWLAWFQQKPGKAPKFLIYDASNLENGVPSRFSGSGSGTDFTLTISSLQPEDFATYYCQQAKSFPWTFGQGTKVEINR
B9: COVIC-385 (antibody, V domains shown)
VH: EVQLVESGGGLVQPGGSLRLSCKASGISVAPHAVTWVRQAPGKGLEWIGVIASNADTYYASWAKGRFTISRDNSKNTLYLQMNSLRAEDTAVYYCARHPGSAGYGYTYYYAMDPWGQGTLVTVSS
VL: DIQMTQSPSSLSASVGDRVTITCQASERVFYGIDWYQQKPGKAPKLLIYGASALWHGVPSRFSGSGSGTDYTLTISSLQPEDFATYYCQQGYMVPIGFGGGTKVEIK
B10: COVIC-311 (antibody)
chain 1: QVQLVESGGGVVQSGRSLRLSCAASGFTFSSYAMHWVRQAPGKGLEWVAVISHDGSNTYYEDSVKGRFTISRDNSKNTLHLQVNSLRVEDTAVYYCARAKGEVRYFDWAEQGGDYWGQGTLVTVSSGGGGSGGGGSGGGGQVQLVQSGAEVKKPGSSVKVSCKASGGTFGISWVRQAPGQGLEWMGRIIPILGTANHAQKFQGRVTITADKSTGTVYMELSSLRSEDTAVYYCARDGDSGSYYETLGFDYWGQGTLVTVSS
chain 2: SYELTQPPSVSVSPGQTARITCSGDALPKKYAYWYQQKSGQAPVLVIYEDSKRPSGIPERFSGSSSGTMATLTISGAQVEDEADYYCYSTDNSGDHGVFGGGTKLTVLGGGGSGGGGSGGGGQSALTQPPSASGSPGQSVTISCTGTSSDVGGYNYVSWYQQHPGKAPKLMIYEVNKRPSGVPDRFSGSKSGNTASLTVSGLQAEDEADYYCSSYAGSNNLVFGGGTKLTVL
B11: COVIC-249 (antibody, V domains shown)
VH: QVQLVQPGGGVIQPGRSLRLSCTASGFTFSSYPMHWVRQAPGKGLEWVAVISYDGDNKYYADSVKGRFTISRDNSKNTLYLQMNSLKSDDTAMYYCARDYVVVILSDSFYYGMDVWGQGTTVTVSS
VL: QSALTQPRSVSGSPGQSVTISCTGTSSDVGGYNYVSWYQQYPGKAPKLMIYDVSKRPSGVPDRFSGSKSGNTASLTISGLQGEDEADYYCCSYAGSYTYVFGTGTKVTVL
B12: COVIC-367 (antibody, V domains shown)
VH: EVQLVESGGGLVQPGRSLRLSCAASGFTFDDYAMHWVRQAPGKGLEWVSGVSWNSGTIGYADSVKGRFIISRDNAKNSLYLQMRSLRAEDTALYYCAKDVSVYRFREQSYGMDVWGQGTTVTVLS
VL: QSALTQSASVSGSPGQSITISCTGTSSDIGGYNFVSWYQQHPGKAPKLMIYEVTTRPSGVSNRFSGSKSGNTASLTISGLQAEDEADYYCSSYTSSSLVVFGGGTKLALLG
B13: COVIC-310 (antibody)
chain 1: QVQLVQSGAEVKKPGSSVKVSCKASGGTFGISWVRQAPGQGLEWMGRIIPILGTANHAQKFQGRVTITADKSTGTVYMELSSLRSEDTAVYYCARDGDSGSYYETLGFDYWGQGTLVTVSSGGGGSGGGGSGGGGQVQLVESGGGVVQSGRSLRLSCAASGFTFSSYAMHWVRQAPGKGLEWVAVISHDGSNTYYEDSVKGRFTISRDNSKNTLHLQVNSLRVEDTAVYYCARAKGEVRYFDWAEQGGDYWGQGTLVTVSS
chain 2: QSALTQPPSASGSPGQSVTISCTGTSSDVGGYNYVSWYQQHPGKAPKLMIYEVNKRPSGVPDRFSGSKSGNTASLTVSGLQAEDEADYYCSSYAGSNNLVFGGGTKLTVLGGGGSGGGGSGGGGSYELTQPPSVSVSPGQTARITCSGDALPKKYAYWYQQKSGQAPVLVIYEDSKRPSGIPERFSGSSSGTMATLTISGAQVEDEADYYCYSTDNSGDHGVFGGGTKLTVL
B14: COVIC-309 (antibody, V domains shown)
VH: EVQLVESGGGLVQPGRSLRLSCAASGFTFDDYAMHWVRQAPGKGLEWVSGISWNSGSIGYADSVKGRFTISRDNAKNSLHLQMNSLRAEDTALYYCANLLTPPRRYSGYDLREDYFEYWGQGTLVTVSS
VL: SSELTQDPAVSVALGQTVRITCQGDSLRSYYASWYQQKPGQAPVLVIYDRNNRPSGIPDRFSGSSSGNTASLTITGAQAEDEADYYCHSRDSSGNPLHVVFGGGTKLTVL
B15: COVIC-391 (antibody, V domains shown)
VH: QVQLVQSGAEVKKPGSSVKVSCKASGGTFSSYVINWVRQAPGQGLEWMGGIIPTLGTTNYAQKFQGRVTITADKSTSTAYMELSSLRSEDTAVYYCARAGGYSGSGSNYYMDVWGKGTTVTVSS
VL: QSVLTQPPSVSGAPGQRVTISCTGSSSNIGAGYDVHWYQQLPGTAPKLLIYANNNRPSGVPDRFSGSNSGTSASLAITGLQAEDEADYYCQSYDSSLSDSVFGGGTKLTVL

What follows are binders tested against SARS-CoV-2 spike RBD (Wuhan-Hu-1) (Severe acute respiratory syndrome …, UniProt P0DTC2) (assay: SPR).

Row | Binder | Kd [nM]
1 | B1 | 2.25
2 | B2 | 169
3 | B3 | 9.47
4 | B4 | 26.3
5 | B5 | 190
6 | B6 | 135
7 | B7 | 0.431
8 | B8 | 0.826
9 | B9 | 0.0327
10 | B10 | 3.03
11 | B11 | 9.81
12 | B12 | 0.0301
13 | B13 | 1.85
14 | B14 | 104
15 | B15 | 0.0198

— article PMC12014896 (2025)
